“And” between values parts separate entries of the source, which are not always exact repeats. Identical values can stand only once.
Experiments:
[1] = biological target: T1, recombinant E. coli-expressed human IL-4 (human, UniProt P05112 25-153); assay: SPR exp 2
T1 construct: made and purified at GSK; also called Interleukin-4; rhIL-4
T1 sequence: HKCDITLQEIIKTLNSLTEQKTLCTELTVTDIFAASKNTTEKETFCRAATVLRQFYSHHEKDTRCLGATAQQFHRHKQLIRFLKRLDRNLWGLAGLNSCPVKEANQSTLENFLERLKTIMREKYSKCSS

[2] = biological target: T2, recombinant E. coli-expressed human IL-13 (human, UniProt P35225 35-146); assay: SPR exp 2
T2 construct: made and purified at GSK; also called Interleukin-13; rhIL-13

[3] = biological target: T2, recombinant E. coli-expressed human …; assay: SPR
[4] = biological target: T1, recombinant E. coli-expressed human IL-4; assay: SPR

B1: PascoL-ASTKG-474 (bispecific antibody, human IgG1, kappa)
heavy: not shown
light: DIVLTQSPSSLSASVGDRVTITCKASQSVDYDGDSYMNWYQQKPGKAPKLLIYAASNLESGIPSRFSGSGSGTDFTFTISSLQPEDIATYYCQQSNEDPPTFGQGTKVEIKRTVAAPSVFIFPPSDEQLKSGTASVVCLLNNFYPREAKVQWKVDNALQSGNSQESVTEQDSKDSTYSLSSTLTLSKADYEKHKVYACEVTHQGLSSPVTKSFNRGECASTKGPTGSGVQLLESGGGLVQPGGSLRLSCAASGFTFAWYDMGWVRQAPGKGLEWVSSIDWHGEVTYYADSVKGRFTISRDNSKNTLYLQMNSLRAEDTAVYYCATAEDEPGYDYWGQGTLVTVSS
**Q.** B1 was tested. Which Kd [1] did it give?
**A.** 0.041 nM and 0.06 nM

**Q.** And the koff [1]?
**A.** 0.000121 s⁻¹ and 0.000152 s⁻¹

**Q.** And the kon [1]?
**A.** 2.95e+06 M⁻¹ s⁻¹ and 2.54e+06 M⁻¹ s⁻¹

**Q.** And the Kd [2]?
**A.** 0.451 nM and 0.595 nM

**Q.** What about the koff [2] of the same binder?
**A.** 0.000238 s⁻¹ and 0.00032 s⁻¹

**Q.** And the kon [2]?
**A.** 526000 M⁻¹ s⁻¹ and 538000 M⁻¹ s⁻¹

B2: 586H-EPKSC-154 (bispecific antibody, human IgG1, kappa)
heavy: not shown
light: DIVMTQSPLSLPVTPGEPASISCRSSQNIVHINGNTYLEWYLQKPGQSPRLLIYKISDRFSGVPDRFSGSGSGTDFTLKISRVEADDVGIYYCFQGSHVPWTFGQGTKLEIKRTVAAPSVFIFPPSDEQLKSGTASVVCLLNNFYPREAKVQWKVDNALQSGNSQESVTEQDSKDSTYSLSSTLTLSKADYEKHKVYACEVTHQGLSSPVTKSFNRGEC
**Q.** B2 was tested. Which Kd [3] did it give?
**A.** 0.42 nM

**Q.** And the Kd [4]?
**A.** 18.8 nM

**Q.** What about the koff [4] of the same binder?
**A.** 0.00057 s⁻¹

**Q.** And the kon [4]?
**A.** 30300 M⁻¹ s⁻¹

B3: 586H (antibody, human IgG1, kappa)
heavy: not shown
light: DIVMTQSPLSLPVTPGEPASISCRSSQNIVHINGNTYLEWYLQKPGQSPRLLIYKISDRFSGVPDRFSGSGSGTDFTLKISRVEADDVGIYYCFQGSHVPWTFGQGTKLEIKRTVAAPSVFIFPPSDEQLKSGTASVVCLLNNFYPREAKVQWKVDNALQSGNSQESVTEQDSKDSTYSLSSTLTLSKADYEKHKVYACEVTHQGLSSPVTKSFNRGEC
notes: no dAb; heavy chain ends in GS
**Q.** With B3 as the binder, how does the Kd [3] read?
**A.** 0.44 nM

**Q.** Does B3 bind [4]?
**A.** no binding (tested: 512 nM top concentration)

B4: 586H-ELQLE (antibody, human IgG1, kappa)
heavy: not shown
light: DIVMTQSPLSLPVTPGEPASISCRSSQNIVHINGNTYLEWYLQKPGQSPRLLIYKISDRFSGVPDRFSGSGSGTDFTLKISRVEADDVGIYYCFQGSHVPWTFGQGTKLEIKRTVAAPSVFIFPPSDEQLKSGTASVVCLLNNFYPREAKVQWKVDNALQSGNSQESVTEQDSKDSTYSLSSTLTLSKADYEKHKVYACEVTHQGLSSPVTKSFNRGEC
notes: no dAb; linker only
**Q.** Which Kd [3] does the source give for B4 here?
**A.** 0.47 nM

**Q.** Does B4 bind [4]?
**A.** no binding (tested: 512 nM top concentration)

B5: 586H-G4S-147 (bispecific antibody, human IgG1, kappa)
heavy: not shown
light: DIVMTQSPLSLPVTPGEPASISCRSSQNIVHINGNTYLEWYLQKPGQSPRLLIYKISDRFSGVPDRFSGSGSGTDFTLKISRVEADDVGIYYCFQGSHVPWTFGQGTKLEIKRTVAAPSVFIFPPSDEQLKSGTASVVCLLNNFYPREAKVQWKVDNALQSGNSQESVTEQDSKDSTYSLSSTLTLSKADYEKHKVYACEVTHQGLSSPVTKSFNRGEC
**Q.** How did the Kd [3] turn out when B5 was run?
**A.** 0.45 nM

**Q.** And the Kd [4]?
**A.** 108 nM

**Q.** And the koff [4]?
**A.** 0.000457 s⁻¹

**Q.** And the kon [4]?
**A.** 4210 M⁻¹ s⁻¹

B6: 586H-ASTKG (antibody, human IgG1, kappa)
heavy: not shown
light: DIVMTQSPLSLPVTPGEPASISCRSSQNIVHINGNTYLEWYLQKPGQSPRLLIYKISDRFSGVPDRFSGSGSGTDFTLKISRVEADDVGIYYCFQGSHVPWTFGQGTKLEIKRTVAAPSVFIFPPSDEQLKSGTASVVCLLNNFYPREAKVQWKVDNALQSGNSQESVTEQDSKDSTYSLSSTLTLSKADYEKHKVYACEVTHQGLSSPVTKSFNRGEC
notes: no dAb; linker only
**Q.** Which results are given for B6?
**A.** Kd [3]: 0.32 nM; binding result [4]: no binding (tested: 512 nM top concentration)

B7: 586H-EPKSC (antibody, human IgG1, kappa)
heavy: not shown
light: DIVMTQSPLSLPVTPGEPASISCRSSQNIVHINGNTYLEWYLQKPGQSPRLLIYKISDRFSGVPDRFSGSGSGTDFTLKISRVEADDVGIYYCFQGSHVPWTFGQGTKLEIKRTVAAPSVFIFPPSDEQLKSGTASVVCLLNNFYPREAKVQWKVDNALQSGNSQESVTEQDSKDSTYSLSSTLTLSKADYEKHKVYACEVTHQGLSSPVTKSFNRGEC
**Q.** B7 was tested. Which Kd [3] did it give?
**A.** 0.45 nM

**Q.** Does B7 bind [4]?
**A.** no binding (tested: 512 nM top concentration)
